This note sets out measurements from US20240101685A1, “NEAR INFRARED PHOTOIMMUNOTHERAPY (NIR-PIT) COMBINATION THERAPY TO TREAT CANCER” (THE UNITED STATES OF AMERICA, as represented by the …, priority 2021, published 2024).

This assay deals with PD-L1 expression on cancer cell lines MC38-luc and LL2-luc. Description: Flow-cytometric analysis of PD-L1 expression with or without interferon gamma. It counts as cell-based. The following applies: cell culture, 20 ng/ml or 50 ng/ml IFNgamma. The procedure: FIG. 12: Flow cytometry analysis showing PD-L1 expression in cancer cell lines before and after stimulation with 20 ng/ml or 50 ng/ml IFNgamma (IFNγ).

B1: interferon gamma: immunoactivator cytokine (protein, UniProt P01579 24-161, looked up)
Interferon gamma: QDPYVKEAENLKKYFNAGHSDVADNGTLFLGILKNWKEESDRKIMQSQIVSFYFKLFKNFKDDQSIQKSVETIKEDMNVKFFNSNKKKRDDFEKLTNYSVTDLNVQRKAIHELIQVMAELSPAAKTGKRKRSQMLFRG
Turning to B1, the PD-L1 expression entry is reported as “conditionally enhanced the expression of PD-L1”. Also, the PD-L1 expression entry (listed as IFN-gamma) is given as “PD-L1 expression increases”.
